Results reported in patent US20210388087A1 (Chugai, published 2021).
Positions count from the first letter of the chain named.

B1: H183/L072 VL S52M (antibody, name in Kabat numbering, V domains shown)
VH: QVQLVESGGGLVQPGRSLRLSCAASGFTFSNAWMHWVRQAPGKGLEWVAQIKDKGNAYAAYYAPSVKGRFTISRDDSKNSIYLQMNSLKTEDTAVYYCHYVHYASASTVLPAFGVDAWGQGTTVTVSS
VL: DIVMTQSPLSLPVTPGEPASISCQASQELVHMNRNTYLHWYQQKPGQAPRLLIYKVMNRFPGVPDRFSGSGSGTDFTLKISRVEAEDVGVYYCAQGTSVPFTFGQGTKLEIK
notes: Dual-Ig
B2: H183/L072 VL T31L (antibody, name in Kabat numbering, V domains shown)
VH: B1 VH
VL: B1 VL with T36L, M57S
notes: Dual-Ig
B3: H183/L072 VL S93T (antibody, name in Kabat numbering, V domains shown)
VH: B1 VH
VL: B1 VL with M57S, S98T
notes: Dual-Ig
B4: H183/L072 VL S93D (antibody, name in Kabat numbering, V domains shown)
VH: B1 VH
VL: B1 VL with M57S, S98D
notes: Dual-Ig
B5: H183/L072 VL S93M (antibody, name in Kabat numbering, V domains shown)
VH: B1 VH
VL: B1 VL with M57S, S98M
notes: Dual-Ig
B6: H183/L072 VL T31K (antibody, name in Kabat numbering, V domains shown)
VH: B1 VH
VL: B1 VL with T36K, M57S
notes: Dual-Ig
B7: H183/L072 VL S93I (antibody, name in Kabat numbering, V domains shown)
VH: B1 VH
VL: B1 VL with M57S, S98I
notes: Dual-Ig
B8: H183/L072 VL T31F (antibody, name in Kabat numbering, V domains shown)
VH: B1 VH
VL: B1 VL with T36F, M57S
notes: Dual-Ig
B9: H183/L072 VL S52W (antibody, name in Kabat numbering, V domains shown)
VH: B1 VH
VL: B1 VL with M57W
notes: Dual-Ig
B10: H183/L072 VL S93L (antibody, name in Kabat numbering, V domains shown)
VH: B1 VH
VL: B1 VL with M57S, S98L
notes: Dual-Ig
B11: H183/L072 VL S52N (antibody, name in Kabat numbering, V domains shown)
VH: B1 VH
VL: B1 VL with M57N
notes: Dual-Ig
B12: H183/L072 VL S93F (antibody, name in Kabat numbering, V domains shown)
VH: B1 VH
VL: B1 VL with M57S, S98F
notes: Dual-Ig
B13: H183/L072 VL T31E (antibody, name in Kabat numbering, V domains shown)
VH: B1 VH
VL: B1 VL with T36E, M57S
notes: Dual-Ig
B14: H183/L072 VL S52V (antibody, name in Kabat numbering, V domains shown)
VH: B1 VH
VL: B1 VL with M57V
notes: Dual-Ig
B15: H183/L072 VL S52P (antibody, name in Kabat numbering, V domains shown)
VH: B1 VH
VL: B1 VL with M57P
notes: Dual-Ig
B16: H183/L072 VL S93V (antibody, name in Kabat numbering, V domains shown)
VH: B1 VH
VL: B1 VL with M57S, S98V
notes: Dual-Ig
B17: H183/L072 VL S52R (antibody, name in Kabat numbering, V domains shown)
VH: B1 VH
VL: B1 VL with M57R
notes: Dual-Ig
B18: H183/L072 VL T31D (antibody, name in Kabat numbering, V domains shown)
VH: B1 VH
VL: B1 VL with T36D, M57S
notes: Dual-Ig
B19: H183/L072 VL S52T (antibody, name in Kabat numbering, V domains shown)
VH: B1 VH
VL: B1 VL with M57T
notes: Dual-Ig
B20: H183/L072 VL S93H (antibody, name in Kabat numbering, V domains shown)
VH: B1 VH
VL: B1 VL with M57S, S98H
notes: Dual-Ig
B21: H183/L072 VL S93N (antibody, name in Kabat numbering, V domains shown)
VH: B1 VH
VL: B1 VL with M57S, S98N
notes: Dual-Ig
B22: H183/L072 VL S93Q (antibody, name in Kabat numbering, V domains shown)
VH: B1 VH
VL: B1 VL with M57S, S98Q
notes: Dual-Ig
B23: H183/L072 VL S93K (antibody, name in Kabat numbering, V domains shown)
VH: B1 VH
VL: B1 VL with M57S, S98K
notes: Dual-Ig
B24: H183/L072 VL S93R (antibody, name in Kabat numbering, V domains shown)
VH: B1 VH
VL: B1 VL with M57S, S98R
notes: Dual-Ig
B25: H183/L072 VL S93P (antibody, name in Kabat numbering, V domains shown)
VH: B1 VH
VL: B1 VL with M57S, S98P
notes: Dual-Ig
B26: H183/L072 VL S93A (antibody, name in Kabat numbering, V domains shown)
VH: B1 VH
VL: B1 VL with M57S, S98A
notes: Dual-Ig
B27: H183/L072 VL S52Q (antibody, name in Kabat numbering, V domains shown)
VH: B1 VH
VL: B1 VL with M57Q
notes: Dual-Ig
B28: H183/L072 VL S93E (antibody, name in Kabat numbering, V domains shown)
VH: B1 VH
VL: B1 VL with M57S, S98E
notes: Dual-Ig
B29: H183/L072 VL S93G (antibody, name in Kabat numbering, V domains shown)
VH: B1 VH
VL: B1 VL with M57S, S98G
notes: Dual-Ig
B30: H183/L072 VL T31I (antibody, name in Kabat numbering, V domains shown)
VH: B1 VH
VL: B1 VL with T36I, M57S
notes: Dual-Ig
B31: H183/L072 VL S93W (antibody, name in Kabat numbering, V domains shown)
VH: B1 VH
VL: B1 VL with M57S, S98W
notes: Dual-Ig
B32: H183/L072 VL T31A (antibody, name in Kabat numbering, V domains shown)
VH: B1 VH
VL: B1 VL with T36A, M57S
notes: Dual-Ig
B33: H183/L072 VL T31M (antibody, name in Kabat numbering, V domains shown)
VH: B1 VH
VL: B1 VL with T36M, M57S
notes: Dual-Ig

Target: T1, Human CD137 ECD (human)
T1 construct: entry includes C-terminal His-tag and biotin acceptor peptide; also called human CD137 extracellular domain; 4-1BB
Assay: Biacore SPR, vs parent H183/L072

T1 sequence (chain, as listed by the source limits assumed): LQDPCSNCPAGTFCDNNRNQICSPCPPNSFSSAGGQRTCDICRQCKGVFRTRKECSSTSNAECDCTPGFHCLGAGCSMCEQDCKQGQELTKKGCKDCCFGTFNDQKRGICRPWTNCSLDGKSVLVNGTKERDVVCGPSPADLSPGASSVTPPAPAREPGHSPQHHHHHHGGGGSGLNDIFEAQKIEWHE

Binder	fold change of affinity
B1	1.1 fold
B2	0.5 fold
B3	1.1 fold
B4	0.7 fold
B5	1 fold
B6	0.4 fold
B7	1.1 fold
B8	0.2 fold
B9	1 fold
B10	1.3 fold
B11	1 fold
B12	1 fold
B13	0.4 fold
B14	1.3 fold
B15	0.3 fold
B16	1.1 fold
B17	1 fold

Binder	fold change of affinity
B18	0.1 fold
B19	1 fold
B20	1.3 fold
B21	1 fold
B22	1.1 fold
B23	1.1 fold
B24	1 fold
B25	0 fold
B26	0.9 fold
B27	1 fold
B28	1 fold
B29	0.4 fold
B30	0.9 fold
B31	1.2 fold
B32	0.4 fold
B33	0.3 fold
